The target in one series is Cux1 (UniProt P39880). The series can be described thus: EMSA. Conditions: EMSA: ZBA (10 mM Tris pH 7.5, 90 mM KCl, 1 mM MgCl2, 90 uM ZnCl2, 5 mM DTT) with 100 ng/ul poly(dI-dC), 15 min, room temperature, 5% acrylamide gel in 0.5X ….
The target in series [1] is T1, MBP-Miz-1-ZF (Homo sapiens) (UniProt Q13105).
T1 sequence (Q13105 269-793, looked up): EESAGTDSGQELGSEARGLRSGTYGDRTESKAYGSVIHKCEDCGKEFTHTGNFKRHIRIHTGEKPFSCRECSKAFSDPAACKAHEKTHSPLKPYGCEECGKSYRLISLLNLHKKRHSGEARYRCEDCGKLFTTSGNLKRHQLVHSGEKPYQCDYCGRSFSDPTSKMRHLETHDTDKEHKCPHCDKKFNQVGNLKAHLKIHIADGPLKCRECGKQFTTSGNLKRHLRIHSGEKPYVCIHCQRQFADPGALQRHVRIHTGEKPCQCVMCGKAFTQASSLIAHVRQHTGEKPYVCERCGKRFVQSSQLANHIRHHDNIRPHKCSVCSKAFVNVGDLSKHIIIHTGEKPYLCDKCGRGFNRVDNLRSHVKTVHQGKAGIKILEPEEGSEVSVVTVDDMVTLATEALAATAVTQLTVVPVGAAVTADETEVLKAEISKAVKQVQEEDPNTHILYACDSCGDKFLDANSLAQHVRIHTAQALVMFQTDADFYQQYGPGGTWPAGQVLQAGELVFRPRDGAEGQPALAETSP
Briefly: competition. The following applies: EMSA: ZBA (10 mM Tris pH 7.5, 90 mM KCl, 1 mM MgCl2, 90 uM ZnCl2, 5 mM DTT) with 100 ng/ul poly(dI-dC), 15 min, room temperature, 5% acrylamide gel in 0.5X …. Background: A gel shift assay detects complexes by their altered migration in electrophoresis.

In another series the target is T2, Miz-1 untagged (Homo sapiens, UniProt Q13105 1-803).
T2 sequence: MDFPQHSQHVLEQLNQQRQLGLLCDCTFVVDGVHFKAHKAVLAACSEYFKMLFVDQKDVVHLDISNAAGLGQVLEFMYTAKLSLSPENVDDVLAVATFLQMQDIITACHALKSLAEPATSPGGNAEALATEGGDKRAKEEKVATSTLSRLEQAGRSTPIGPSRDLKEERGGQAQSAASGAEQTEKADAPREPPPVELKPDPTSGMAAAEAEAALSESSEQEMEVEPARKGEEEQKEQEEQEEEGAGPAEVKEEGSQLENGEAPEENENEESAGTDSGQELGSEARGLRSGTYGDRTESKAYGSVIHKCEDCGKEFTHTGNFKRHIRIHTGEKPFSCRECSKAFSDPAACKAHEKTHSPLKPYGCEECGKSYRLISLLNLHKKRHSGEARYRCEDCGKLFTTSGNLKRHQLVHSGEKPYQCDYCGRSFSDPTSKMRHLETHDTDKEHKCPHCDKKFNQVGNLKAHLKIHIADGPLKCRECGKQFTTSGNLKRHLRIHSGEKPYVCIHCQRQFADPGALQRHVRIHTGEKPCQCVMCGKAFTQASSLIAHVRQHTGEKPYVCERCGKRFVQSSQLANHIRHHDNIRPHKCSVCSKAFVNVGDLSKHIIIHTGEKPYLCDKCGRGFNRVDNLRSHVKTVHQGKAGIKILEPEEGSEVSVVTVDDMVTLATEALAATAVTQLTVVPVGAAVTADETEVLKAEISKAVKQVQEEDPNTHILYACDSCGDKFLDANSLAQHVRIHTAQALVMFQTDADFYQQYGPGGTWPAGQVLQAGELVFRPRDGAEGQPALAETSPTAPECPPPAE
The series can be described thus: EMSA; EMSA: ZBA (10 mM Tris pH 7.5, 90 mM KCl, 1 mM MgCl2, 90 uM ZnCl2, 5 mM DTT) with 100 ng/ul poly(dI-dC), 15 min, room temperature; 5% acrylamide gel in 0.5X Tris-borate at 4 C. Conditions: protein: ivt; tags: none; label: 5' IRDye 700; blunt.

The target of series [2] is T3, MBP-Miz-1-FL (Homo sapiens, UniProt Q13105 1-803).
T3 sequence: T2 sequence
The series is described as above. The following applies: protein: recombinant; tags: N-terminal MBP; label: 5' IRDye 700; blunt.

Series [3] addresses T4, Miz-1 (Figure 7 preparation) (UniProt Q13105 1-803).
T4 sequence: T2 sequence
The description is as above. The following applies: protein: ivt; label: 5' IRDye 700; blunt.

Series [4] concerns the target T3, MBP-Miz-1-FL. Briefly: competition; unlabeled P1m3 vs labeled P1 or P2; range over both proteins and probes; EMSA: ZBA (10 mM Tris pH 7.5, 90 mM KCl, 1 mM MgCl2, 90 uM ZnCl2, 5 mM DTT) with 100 ng/ul poly(dI-dC), 15 min, room temperature; 5% acrylamide gel in 0.5X Tris-borate at 4 C. Conditions: protein: recombinant; tags: N-terminal MBP; blunt.
Series [5] addresses T3, MBP-Miz-1-FL. Briefly: competition; 200-fold unlabeled P1 vs labeled P1; EMSA: ZBA (10 mM Tris pH 7.5, 90 mM KCl, 1 mM MgCl2, 90 uM ZnCl2, 5 mM DTT) with 100 ng/ul poly(dI-dC), 15 min, room temperature; 5% acrylamide gel in 0.5X Tris-borate at 4 C. The following applies: protein: recombinant; tags: N-terminal MBP; label: 5' IRDye 700 (labeled version); blunt.
In series [6] the target is T3, MBP-Miz-1-FL. Briefly: competition; 200-fold unlabeled P1 vs labeled P2; EMSA: ZBA (10 mM Tris pH 7.5, 90 mM KCl, 1 mM MgCl2, 90 uM ZnCl2, 5 mM DTT) with 100 ng/ul poly(dI-dC), 15 min, room temperature; 5% acrylamide gel in 0.5X Tris-borate at 4 C. Conditions: protein: recombinant; tags: N-terminal MBP; label: 5' IRDye 700 (labeled version); blunt.
The target in series [7] is T4, Miz-1 (Figure 7 preparation). The series can be described thus: EMSA; EMSA: ZBA (10 mM Tris pH 7.5, 90 mM KCl, 1 mM MgCl2, 90 uM ZnCl2, 5 mM DTT) with 100 ng/ul poly(dI-dC), 15 min, room temperature; 5% acrylamide gel in 0.5X Tris-borate at 4 C. Conditions: protein: ivt; label: 5' IRDye 700 (labeled version); blunt.
The target in series [8] is T3, MBP-Miz-1-FL. The series can be described thus: competition; 200-fold unlabeled P2 vs labeled P1; EMSA: ZBA (10 mM Tris pH 7.5, 90 mM KCl, 1 mM MgCl2, 90 uM ZnCl2, 5 mM DTT) with 100 ng/ul poly(dI-dC), 15 min, room temperature; 5% acrylamide gel in 0.5X Tris-borate at 4 C. Conditions: protein: recombinant; tags: N-terminal MBP; label: 5' IRDye 700 (labeled version); blunt.

For series [9], the target named is T3, MBP-Miz-1-FL. Briefly: competition; 200-fold unlabeled P2 vs labeled P2; EMSA: ZBA (10 mM Tris pH 7.5, 90 mM KCl, 1 mM MgCl2, 90 uM ZnCl2, 5 mM DTT) with 100 ng/ul poly(dI-dC), 15 min, room temperature; 5% acrylamide gel in 0.5X Tris-borate at 4 C. Conditions: protein: recombinant; tags: N-terminal MBP; label: 5' IRDye 700 (labeled version); blunt.

Sequence of Cux1 (P39880 whole entry): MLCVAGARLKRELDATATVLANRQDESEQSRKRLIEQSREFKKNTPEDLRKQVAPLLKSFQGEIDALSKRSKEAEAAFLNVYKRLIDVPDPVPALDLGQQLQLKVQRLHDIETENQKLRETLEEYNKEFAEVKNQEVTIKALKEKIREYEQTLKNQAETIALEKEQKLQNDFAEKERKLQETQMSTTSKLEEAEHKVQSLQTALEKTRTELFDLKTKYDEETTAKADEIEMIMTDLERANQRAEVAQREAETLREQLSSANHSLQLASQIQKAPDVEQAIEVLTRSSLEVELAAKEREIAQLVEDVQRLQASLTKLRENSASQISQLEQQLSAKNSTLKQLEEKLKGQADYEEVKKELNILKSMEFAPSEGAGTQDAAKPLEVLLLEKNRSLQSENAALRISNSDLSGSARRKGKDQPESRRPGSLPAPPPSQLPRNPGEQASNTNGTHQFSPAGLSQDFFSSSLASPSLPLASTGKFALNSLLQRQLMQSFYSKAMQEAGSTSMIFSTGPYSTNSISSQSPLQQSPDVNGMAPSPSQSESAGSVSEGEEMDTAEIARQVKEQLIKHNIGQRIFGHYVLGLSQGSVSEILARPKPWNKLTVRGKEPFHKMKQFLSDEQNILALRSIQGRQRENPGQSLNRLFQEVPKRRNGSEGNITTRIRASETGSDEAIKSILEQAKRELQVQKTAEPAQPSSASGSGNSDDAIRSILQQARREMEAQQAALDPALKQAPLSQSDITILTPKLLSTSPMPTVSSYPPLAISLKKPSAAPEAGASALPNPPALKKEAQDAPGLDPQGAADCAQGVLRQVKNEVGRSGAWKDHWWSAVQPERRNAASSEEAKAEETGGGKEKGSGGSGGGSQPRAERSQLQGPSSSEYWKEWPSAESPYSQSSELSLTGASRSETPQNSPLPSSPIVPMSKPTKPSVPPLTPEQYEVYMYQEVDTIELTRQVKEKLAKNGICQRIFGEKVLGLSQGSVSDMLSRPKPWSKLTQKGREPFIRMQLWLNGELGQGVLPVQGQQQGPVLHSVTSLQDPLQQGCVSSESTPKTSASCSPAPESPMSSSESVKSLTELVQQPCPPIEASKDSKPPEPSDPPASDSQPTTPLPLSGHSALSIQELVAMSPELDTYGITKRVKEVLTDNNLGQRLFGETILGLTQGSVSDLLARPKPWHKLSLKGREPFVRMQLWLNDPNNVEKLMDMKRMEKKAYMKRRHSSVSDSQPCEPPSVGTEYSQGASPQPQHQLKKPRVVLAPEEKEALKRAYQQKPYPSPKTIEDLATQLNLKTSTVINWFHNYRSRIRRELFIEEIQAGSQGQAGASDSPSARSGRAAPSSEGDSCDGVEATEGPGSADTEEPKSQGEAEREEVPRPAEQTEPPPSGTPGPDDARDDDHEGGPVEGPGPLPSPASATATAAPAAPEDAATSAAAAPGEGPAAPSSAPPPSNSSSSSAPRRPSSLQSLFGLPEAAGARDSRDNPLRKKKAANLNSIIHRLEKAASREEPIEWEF

In turn, “AGGGTTGGTATCGATTATCGAGTT (double strand) [P2]” registered a binding signal (fold bound intensity P2 over P1) with Cux1 of 2.
On to “GAATTATCCGTAATGCATCGAGGT (double strand) [P1m2]”, for which, in [1] (unlabeled P1m2 vs labeled P1, competition nearly eliminated), the binding signal (% reduction of bound labeled P1) was found to be 24.
“GAATTAGGAGTAAACCATCGAGGT (double strand) [P1m1]” registered a binding signal (% reduction of bound labeled P1) in series [1] (unlabeled P1m1 vs labeled P1, competition nearly eliminated) of 7.
As to “GAATTATCGGTAATCCATCGAGGT (double strand) [P1]”, the binding signal (% reduction of bound labeled P1) in [1] (200-fold unlabeled P1 vs labeled P1) was 87. For the same molecule, the binding signal with Cux1 (scale: bound intensity relative to P2) is 0.5.

B1: CP (dsDNA)
DNA 1: CAAAAGTGCGGCTGCGTGGTGCAC
DNA 2: GTGCACCACGCAGCCGCACTTTTG
As for B1, the binding result (with Miz-1 untagged; with MBP-Miz-1-FL [2]; in [3]) was “no binding” in each case.

B2: P1m3 (dsDNA)
DNA 1: ACCCTTATATCGGTAATCGGTAAG
DNA 2: CTTACCGATTACCGATATAAGGGT
On to B2, for which the binding result in the series with MBP-Miz-1-FL [4] is reported as “binds”.

B3: P1 (dsDNA)
DNA 1: GAATTATCGGTAATCCATCGAGGT
DNA 2: ACCTCGATGGATTACCGATAATTC
Consider B3, for which the results for the binding signal (with MBP-Miz-1-FL [5]; in the series with MBP-Miz-1-FL [6]; in [7]) were 5.3 fold reduction of bound labeled P1, 4.8 fold reduction of bound labeled P2 and ~2.5 fold bound intensity P1 over P2, respectively.

B4: P2 (dsDNA)
DNA 1: AGGGTTGGTATCGATTATCGAGTT
DNA 2: AACTCGATAATCGATACCAACCCT
As for B4, the binding signal with MBP-Miz-1-FL [8] is 2 fold reduction of bound labeled P1; in the series with MBP-Miz-1-FL [9], 6.4 fold reduction of bound labeled P2.

(Values after article PMC4077741, “Miz-1 Activates Gene Expression via a Novel Consensus DNA Binding Motif”.)
